Data taken from PMC10227085, “OsMADS17 simultaneously increases grain number and grain weight in rice”.

B1: EMSA-probe-OsAP2-39 (dsDNA)
DNA 1: AAACCTTACCAAATTTTGGTAAAGTTGCCAAAAAAATGGCTATATTTA
DNA 2: TAAATATAGCCATTTTTTTGGCAACTTTACCAAAATTTGGTAAGGTTT
B2: EMSA-probe-OsMADS17 (dsDNA)
DNA 1: TCTCTGCTCCTTTATATGGGGTTACA
DNA 2: TGTAACCCCATATAAAGGAGCAGAGA

Legend:
MBP-OsMADS17 = MBP-OsMADS17 (Oryza sativa, UniProt Q7XUN2 1-249); experiment: EMSA; cold probe competition at 20x and 200x; 20 uL with 2 uL biotin probe, 5 ug protein, 2 uL 10x binding buffer (composition not given), 1 uL 50% glycerol; 30 min at room temperature; 6% native PAGE, 0.5x TBE; conditions: protein: recombinant; tags: N-terminal MBP; chain copies: 2; blunt
Sequence of MBP-OsMADS17 (Q7XUN2 whole entry): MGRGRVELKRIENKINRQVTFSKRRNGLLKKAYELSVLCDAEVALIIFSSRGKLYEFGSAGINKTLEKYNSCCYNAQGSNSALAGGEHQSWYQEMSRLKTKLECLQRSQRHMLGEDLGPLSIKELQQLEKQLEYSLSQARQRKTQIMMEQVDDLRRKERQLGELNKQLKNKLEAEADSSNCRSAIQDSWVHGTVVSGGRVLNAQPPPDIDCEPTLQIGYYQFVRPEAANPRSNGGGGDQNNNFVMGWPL

MBP-OsMADS1 = MBP-OsMADS1 (Oryza sativa, UniProt Q10PZ9 1-257); experiment: as above; conditions: protein: recombinant; tags: N-terminal MBP; chain copies: 2; blunt
Sequence of MBP-OsMADS1 (Q10PZ9 whole entry): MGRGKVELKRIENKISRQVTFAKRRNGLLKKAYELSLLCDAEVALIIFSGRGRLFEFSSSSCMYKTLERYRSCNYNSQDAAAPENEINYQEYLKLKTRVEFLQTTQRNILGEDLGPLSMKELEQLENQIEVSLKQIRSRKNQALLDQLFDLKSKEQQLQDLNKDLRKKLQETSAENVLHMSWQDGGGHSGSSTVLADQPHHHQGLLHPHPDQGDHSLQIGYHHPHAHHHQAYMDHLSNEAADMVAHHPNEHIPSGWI

Binder | binding result (MBP-OsMADS17) | binding result (MBP-OsMADS1)
B1 | binds | –
B2 | – | binds
